The DeepSol protein solubility set

Test: soluble on expression in E. coli; label from the status in PepcDB or PDB records

| Sequence | soluble on expression in E. coli |
| --- | --- |
| MTYEAFVELVERLWEEVPEDFKRGLQGVHVFPEAKPEPGLEGVWRLGEYLDPGPPSAFGGFEDLGRHIALYYGSFLEVAGEGFDWEAEVWETMLHELRHHLESLAGRDDLVQEDLRRLDAFRRGGPSGEG | soluble |
| MPPAKTKPKFPLCRLPSESVTNVLKIMKLSEIFNLSETSLKARSIVELAMQTIPSHLDLQGFPSKNYKLTVENDGQKVQVQFPHATDALTNFKQKLFRICKTFQIKTASVYFSCPVEAHIIELLGFIKKRKVQFQDFSIKGSVTEQNFKFFMTIGAQRFHLDMSETQPVTEVFALLKIQEVVLQNAAISSQMLNKVLKAWKTTSRLKKFRVIKNWKMDTSVVFQGLHVKQKSRSDTKKEYEIDLDGGGKATCCFKFEKGSSTNGFEFIVIN | not soluble |
| MGSDKIHHHHHHMSQRIGVIDMGTNTFHLLITDIVNDRPHTLVNEKSAVGLGKGGITKGFITEEAMDRALDTLKKFRVILDEHAVVHVIATGTSAVRSGSNKQVLIDRIKKEVNIDVEVIDGAREAELIFRGVQQAVPMEDHISLAMDIGGGSVEFIIGNKNEILWKQSFEIGGQRLIDRFHVHDPMREDDRVMMHNYFDEVLVPLEKAINTWRPTQLIGCSGTFDTLAEMNIQHHREKIALEKQTSYLLSLPDFNRLRKQLVASTRRERLAIAGMIELRADMVVVAICLIEHVLKLVSTNAITVSTYSLKEGVLYTMLDGVKVGS | not soluble |
| MASSNLIKQLQERGLVAQVTDEEALAERLAQGPIALYCGFDPTADSLHLGHLVPLLCLKRFQQAGHKPVALVGGATGLIGDPSFKAAERKLNTEETVQEWVDKIRKQVAPFLDFDCGENSAIAANNYDWFGNMNVLTFLRDIGKHFSVNQMINKEAVKQRLNREDQGISFTEFSYNLLQGYDFACLNKQYGVVLQIGGSDQWGNITSGIDLTRRLHQNQVFGLTVPLITKADGTKFGKTEGGAVWLDPKKTSPYKFYQFWINTADADVYRFLKFFTFMSIEEINALEEEDKNSGKAPRAQYVLAEQVTRLVHGEEGLQAAKRITECLFSGSLSALSEADFEQLAQDGVPMVEMEKGADLMQALVDSELQPSRGQARKTIASNAITINGEKQSDPEYFFKEEDRLFGRFTLLRRGKKNYCLICWK | soluble |
| SQLTHINAAGEAHMVDVSAKAETVREARAEAFVTMRSETLAMIIDGRHHKGDVFATARIAGIQAAKRTWDLIPLCHPLMLSKVEVNLQAEPEHNRVRIETLCRLTGKTGVEMEALTAASVAALTIYDMCKAVQKDMVIGPVRLLAKSGGKSGDFKVEADD | not soluble |
| MARTVNLKGNPVTLVGPELKVGDRAPEAVVVTKDLQEKIVGGAKDVVQVIITVPSLDTPVCETETKKFNEIMAGMEGVDVTVVSMDLPFAQKRFCESFNIQNVTVASDFRYRDMEKYGVLIGEGALKGILARAVFIIDKEGKVAYVQLVPEITEEPNYDEVVNKVKELI | not soluble |
| MGSDKIHHHHHHMPESAEAQVKEALLALLKDRDIQHITMKEIAEKAKVSRGSLYLYYEDKFSIIEDVIEDMKEGLGKALFDAFSHMDTLHLNKKRQTVHPTLSFVHEHRSFFSVMMNRGHFHRFFKDVFQQDVLLAPIHVNLTPIERDIYGHYRALYTYAIILYWLNEDAAASPEAISQKVWELVSQKRFYWLFGKAVPGEREKEKQIDRRVVRTREALQKAFLDVLAEKQDYAGITISDITRKSNIRRATFYDHYANKEELLQTMIQRSCAEIIDHLTIASSPNEFSLKEAEKALAILLSALSNMPIVHFLNREWGVPHVIPDMFKALESFYLHQQTDIHAEKKLYAHYVSAMIIGLLLYRLDEGKAHPPEVLAREFLQFLDVKKYKVVLL | not soluble |
| MGSDKIHHHHHHMMKSLPHMIGNEIKRIRKEKKMTQKELCDGICSQAEISKIENGRNSPTIDLLQQISKRLRVPLSLLFRDQLESDAFREADNHLSSLFREQKYQEMRLELLRTDAIHHNEIRLLKAYFTILLEVKTEKIDYRTASALLSRLTDQEDIWYESPKMFIRIKMAISNLHVENEQYHLAEKVYEELEELTYDTEELKKQLIKVYYNHSQLLTYEKKYKAGLKITEKGLSYSLSLNDASFIAHFYYQRGYYHEVMLGDDSSPAQRDYTISYALFRAFHLHTYEEIVLKGKERFLLFTF | not soluble |
| MSAYLDWLADMGIDGAHPGGFELTKQILRKLKIDRSTSVLDVGCGTGQTAAYIAEQYGANVTAIDIHPTMIAKAKQRFAAKAVSVRLHRASVEALPFPAGTFDLALSESVLAFVSLPNALAEIRRVLKNDGLFVGIEACHERLTAAEQKQIAAFYGFRQLMTSAEWKEVLEQSGFGCRQFSYAAAAEAPSLGAPIVIALPPTPEMASMWQMHQQLTAQFGDRLGYCVFCCEP | not soluble |
| MRKVRIANEQTEESDIIKIVHLSDIHFSEAYYMPEIADSMLQIINESSPDIVIITGDLTENGFAAEYNGAKNFIDKIECKNKVIVPGNHDSKNAGYLFFEDIFKARSSSGYFGDVTVIGLDSSQPELDDGHIGRENYGWIESTFSTGSFKVFALHHHLIPIPKTGRGNNVLVDAGDVLELLDRSGVNLVLCGHWHIPWVWRLNDMFIISAGTVCSSKIRGKTSQCYNLIELETPESECTRWHLRITRVFSSGIKELVVDNIV | not soluble |
| GHMNVKLKVFHAGSLTEPMKAFKRAFEEKHPNVEVQTEAAGSAATIRKVTELGRKADVIATADYTLIQKMMYPEFANWTIMFAKNQIVLAYRNDSRYADEINSQNWYEILKRPDVRFGFSNPNDDPCGYRSLMAIQLAELYYNDPTIFDELVAKNSNLRFSEDNGSYVLRMPSSERIEINKSKIMIRSMEMELIHLVESGELDYFFIYKSVAKQHGFNFVELPVEIDLSSPDYAELYSKVKVVLANGKEVTGKPIVYGITIPKNAENRELAVEFVKLVISEEGQEILRELGQEPLVPPRADTAVPSLKAMVEVS | soluble |
| MFNCLGMGNRDFIEGASGATWVDLVLEGDSCLTIMANDKPTLDVRMINIEASQLAEVRSYCYHASVTDISTVARCPTTGEAHNEKRADSSYVCKQGFTDRGWGNGCGFFGKGSIDTCAKFSCTSKAIGRTIQPENIKYKVGIFVHGTTTSENHGNYSAQVGASQAAKFTVTPNAPSVTLKLGDYGEVTLDCEPRSGLNTEAFYVMTVGSKSFLVHREWFHDLALPWTSPSSTAWRNRELLMEFEGAHATKQSVVALGSQEGGLHQALAGAIVVEYSSSVMLTSGHLKCRLKMDKLALKGTTYGMCTEKFSFAKNPVDTGHGTVVIELSYSGSDGPCKIPIVSVASLNDMTPVGRLVTVNPFVATSSANSKVLVEMEPPFGDSYIVVGRGDKQINHHWHKAGSTLGKA | not soluble |
| MPDTSFSNPGLFTPLQLGSLSLPNRVIMAPLTRSRTPDSVPGRLQQIYYGQRASAGLIISEATNISPTARGYVYTPGIWTDAQEAGWKGVVEAVHAKGGRIALQLWHVGRVSHELVQPDGQQPVAPSALKAEGAECFVEFEDGTAGLHPTSTPRALETDEIPGIVEDYRQAAQRAKRAGFDMVEVHAANACLPNQFLATGTNRRTDQYGGSIENRARFPLEVVDAVAEVFGPERVGIRLTPFLELFGLTDDEPEAMAFYLAGELDRRGLAYLHFNEPDWIGGDITYPEGFREQMRQRFKGGLIYCGNYDAGRAQARLDDNTADAVAFGRPFIANPDLPERFRLGAALNEPDPSTFYGGAEVGYTDYPFLDNGHDRLG | soluble |
| MVFRKSLLKLAVFALGACVAFSNANAAEGKLESIKSKGQLIVGVKNDVPHYALLDQATGEIKGFEVDVAKLLAKSILGDDKKIKLVAVNAKTRGPLLDNGSVDAVIATFTITPERKRIYNFSEPYYQDAIGLLVLKEKKYKSLADMKGANIGVAQAATTKKAIGEAAKKIGIDVKFSEFPDYPSIKAALDAKRVDAFSVDKSILLGYVDDKSEILPDSFEPQSYGIVTKKDDPAFAKYVDDFVKEHKNEIDALAKKWGL | soluble |
| SDTNSNQGIAFVHGTRDHREDAYGGYWKIDFIQSISQTLAKPENHYVVHCDFSQYMWHEDAANCVANQLLEFINDKNVSSLTVYTHSDGANIMRWILSNPTYDGRYMTLKRKISQVIAIAPSSGGTPLADEVLNGGIFETSLAWLLGYLSDAVKQQRVGDMLIYNEELLLGSKGRPSLSIPFKVIVGTDVYASPFSTSSYCNGYMLNSGLKIAKLYLNQCADGFLDCESQAQAGEVWFYDIDKTDYNLPLSHNQSRHSCFGLDQI | not soluble |
| MRGSHHHHHHTDPALRAPKSVIIPAGSSAPLAPFVPGTLADGVVYVSGTLAFDQHNNVLFADDPKAQTRHVLETIRKVIETAGGTMADVTFNSIFITDWKNYAAINEIYAEFFPGDKPARFCIQCGLVKPDALVEIATIAHIAKGLCGR | soluble |
| MAISVFDLFSIGIGPSSSHTVGPMRAARMFARRLRNEELLDSVASVRVELYGSLGATGHGHGTPKAVLLGLEGDSPRTVDVESADDRVETIKSSGRISLLGDHEIAFAYDDDMVLHRRKALPYHANGMTLWAYDAEGAEVLTKTYYSVGGGFVVDEDAVGADRIVLDDTVLKYPFRTGDELLRLARETGLSISALMLENERAWRDEDEIREGLLEIWRVMRACVDRGMTREGILPGGLKVRRRAANTARKLRSEGDPQALAMEWITLYAMAVNEENAAGGRVVTAPTNGAAGIIPAVLHYYMNFVPGADEDGVVRFLLAAGAIGMLFKENASISGAEVGCQGEVGSACSMAAGALAEVLGGSPEQVENAAEIGMEHNLGLTCDPVGGLVQIPCIERNGMAAVKAVTAARMAMRGDGSHKVSLDKVIKTMKETGADMSVKYKETARGGLAVNIIEC | not soluble |
| MKIFTVCQSGLGTSFMVQMNIQQILEEVGVDTDNFQIDHTDVGSASGDMADYFFVEKTLQDALGSIPAEKIIPLNAIIDYDETKEKVLKVLDDNGIAHQ | not soluble |
| MAVNGKTLIRRFNDYCPEWLAETGDPVGLHIGTLDKPIENVMVTLDVRPEVVAEAIEKQVDLIIAKHPPIFRPVKRLTTDNFQEKMYADLLKHDIAVYAAHTNMDIIDNGLNDWFCELLGIKQTTFLTKTHTVPYKKLAVFVPIDEAPQMREALGLAGAGSQGDYSKTSYSLIGTGRFTPTQGANPTIGEIGQESVVQEAKIEVIFPETKQEQVLAAMLQAHPYEEPAYDVYTIENQSKEFGLGRVGVLDKPVRFSYFVQQVKEAFQLDGLRVIAKDDTKMIQRVAICGGSGEKFYHDALRKQADVYITGDVYYHTAHDMIAEDLPVIDPGHYIEALCKPKLVELMNQWKQENEWAVSIFESEANTNPFRFK | not soluble |
| MGSSHHHHHHSSGLVPRGSEHLKNISPIDGRYKKACGELSAFFSEHALIKHRIIVEVRWLLFLNEEELFFEKVTDHSVEVLNQIATNITDSDIARVKAIEEETNHDVKAVEYFVKEKLKNSKREDLLKIKEYVHYLCTSEDINNVAYATCLKACLNDVVIPCLEKIMLKLKDLAVEYSHVPLLSRTHGQPASSTTFGKEMANFYARIHHHVGVIRRVKVCAKFNGAVGNFNAHKVASKDTDWVNTIGLFLKKHFNLTYSIYCTQIQDHDYICELCDGLARANGTLIDLCVDIWLYISNNLLKLKVKEKEVGSSTMPHKVNPIDFENAEGNLHIANAFFKLFSSKLPTSRLQRDLSDSTVLRNIGSSLAYCLIAYKSVLKGLNKIDIDRRNLEEELNQNWSTLAEPIQIVMKRHNYVDAYEELKQFTRGKVIDQKIMQEFIKTKCAFLPQDVVDQLLELTPATYTGYADYLAKNVERLSGERD | soluble |
